Measured values from the supplement of paper PMC9170038.

Test system: MS2 coat protein
Assay: apparent KD of MS2 coat protein; designed switch direction (-1 OFF switch, 1 ON switch): 1; higher = weaker reporter binding
In short: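 Designed RNA switches with common flanks were transcribed on Illumina chips by stalled E. coli RNA polymerase and titrated with SNAP-549-labelled MS2 coat protein, from 0.7 or 1.5 nM doubling to 3 µM, in Tris-HCl pH 7.5 buffer with KCl, MgCl2, BSA, DTT, tRNA and Tween-20. Steps lasted 0.8–1.5 h (lowest) to 10–20 min (highest). Titrations ran without input, with 200 uM small-molecule ligand, or with an oligonucleotide input. Normalised cluster fluorescence was curve-fitted, and apparent KD is the per-design median over clusters.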

[1] = input ligand: microRNA oligo, concentration not stated
[2] = Eterna round: R95, input ligand: microRNA oligo, concentration not stated
[3] = Eterna round: R95, input ligand: FMN 200 uM
[4] = Eterna round: R95, input ligand: none

Sequence | apparent KD of MS2 coat protein (input ligand: FMN 200 uM) [µM] | apparent KD of MS2 coat protein [1] [µM] | apparent KD of MS2 coat protein (input ligand: none) [µM] | apparent KD of MS2 coat protein [2] [µM] | apparent KD of MS2 coat protein [3] [µM] | apparent KD of MS2 coat protein [4] [µM]
GGUAAGAAUUAAGGAUAUCGAGUACAUAUGUUUAACAUGAGGAUCACCCAUGUGGGUUGCGGUAUCGAGAAGGUAAAAUAUAAG [Mat - same State NG 2 - JL mod - D64] (Eterna round: R96, puzzle: Same State NG 2) | 0.0518 | 0.0264 | 0.0757 | – | – | –
GGUACACAUGAGGAUCACCCAUGUCGUAUGACAUGAGGAUAUGUACAGACUUCGGUCUGUACAGAAGGCAUGUGUC [SS1 - 1011 Omei Mod 4] (puzzle: Same State 1) | – | – | – | 0.0245 | – | –
GGUACCAACACAGGAUAUGCUAUCCUUUGGGUAGCAGAAGGGUGAAACAUGAGGAUCACCCAUGUGGUGCCAGGGCGUGAGCCC [JL SSNG1 1.93] (Eterna round: R96, puzzle: Same State NG 1) | 0.108 | 0.854 | 2.19 | – | – | –
GGUAGGUUACUACCAAACAUGAGGAUCACCCAUGUAAAUGGGAAGGAUAUGGUACCGUUUCGGUACCAGAAGGUCCAAAAUAUU [JL Fiskers NG3ss - 2 final mod] (Eterna round: R96, puzzle: Same State NG 3) | 0.418 | 0.356 | 1.52 | – | – | –
GGUAGGUUACUACCAACACAUGAGGAUCACCCAUGUUUUCAUGAGGAUAUGGUACCUAUUUGGUACCAGAAGGCAUGGUUAAUU [Fiskers NG3ss - 18] (Eterna round: R96, puzzle: Same State NG 3) | 0.0486 | 0.0768 | 0.104 | – | – | –
GGUAGGUUACUACCAAUCUACAUGAGGAUCACCCAUGUGUGGAAGGAUAUGGUACCUAUUUGGUACCAGAAGGUCCAAUUAAUU [Fiskers NG3ss - 7] (Eterna round: R96, puzzle: Same State NG 3) | 0.179 | 0.0647 | 0.153 | – | – | –
GGUAGGUUACUACCAGACAUGAGGAUCACCCAUGUAAGUGGGAAGGAUAUGGUACCGUUUCGGUACCAGAAGGUCCUAAAUGAG [JL SSNG3 1.46] (Eterna round: R96, puzzle: Same State NG 3) | 0.332 | 1.65 | 1.22 | – | – | –
GGUAGGUUACUACCAGACAUGAGGAUCACCCAUGUAAGUGGGAAGGAUAUGGUACCUUUUAGGUACCAGAAGGUCCAUAUAUUC [JL SSNG3 1.44] (Eterna round: R96, puzzle: Same State NG 3) | 0.178 | 0.637 | 0.849 | – | – | –
GGUAUCGACACAGGAUAUGCUAUCCUUUGGGUAGCAGAAGGGUGGACAUGAGGAUCACCCAUGUGGGUGCCAGGGCGUGAGCCC [JL SSNG1 1.84] (Eterna round: R96, puzzle: Same State NG 1) | 0.234 | 0.0211 | 1.04 | – | – | –
GGUAUCGACGCAGGAUAUGCUAUCCUUUGGGUAGCAGAAGGGUGGACAUGAGGAUCACCCAUGUGGGUGCCAGGGCGUGAGCCC [JL SSNG1 1.83] (Eterna round: R96, puzzle: Same State NG 1) | 0.283 | 0.0128 | 0.44 | – | – | –
GGUCCAGCCUGAGCUGGACAAAAGCAUGUACAUGAGGAUCACCCAUGUCAUGUACAAGCUUUUUGCUCGUCUAAAUG [Mat - hsa-mir-208a - 93] (puzzle: Sensor for hsa-mir-208a) | – | – | – | 0.0217 | 0.802 | 0.758
GGUCCAGCCUGAGCUGGACAAAAGCAUGUACAUGAGGAUCACCCAUGUCAUGUACAAGCUUUUUGCUCGUCUUAAAA [Mat - Sensor - JL mod - D87] (Eterna round: R96, puzzle: Sensor for hsa-mir-208a) | 0.586 | 0.0142 | 0.573 | – | – | –
GGUCCAGCCUGAGCUGGACAAAAGCAUGUACAUGAGGAUCACCCAUGUCAUGUACAAGCUUUUUGUUCGUCUUAAAA [JL mod - D87 - 13] (puzzle: Sensor for hsa-mir-208a) | – | – | – | 0.0156 | 0.42 | 0.344
GGUCCAGCCUGAGCUGGACUAUAGCAUGUACAUGAGGAUCACCCAUGUCAUGUACAAGUAUGUUGUUUGUCUUGAAA [Sensorship 6 - Jieux - Sensor for hsa-mir-208a] (puzzle: Sensor for hsa-mir-208a) | – | – | – | 0.0153 | 0.0214 | 0.0202
GGUCCAGCCUGAGCUGGACUAUAGUAUGUACAUGAGGAUCACCCAUGUCAUGUACAAGUAUGUUGUUUGUCUUGAAA [Sensorship 5 - Jieux - Sensor for hsa-mir-208a] (puzzle: Sensor for hsa-mir-208a) | – | – | – | 0.0654 | 0.0723 | 0.103
GGUGGGUUACUACCCACACAUGAGGAUCACCCAUGUAUUGGGAAGGAUAUGGUACCUAUUUGGUACCAGAAGGUCCUGAAGGUG [SS-NG3-LRO16] (Eterna round: R96, puzzle: Same State NG 3) | 0.638 | 0.545 | 1.17 | – | – | –
GGUUUAGCCAGGCGCAAUUGCGCCUGAAAACAUGAGGAUCACCCAUGUUUGGGACAAGCUUUGCUCCUCGUCUUGCA [Edreisza] (puzzle: Sensor for hsa-mir-208a) | – | – | – | 0.0419 | 0.243 | 0.33
GUAAAACAUGAGGAUCACCCAUGUAAUAAUAUGGGAGGAUAUCAGAUUUAAUUUAAUUUAUGAGAAGGCCUAAAUG [Mat - Same State 1 - Mod of Eli - D59] (puzzle: Same State 1) | – | – | – | 0.181 | 0.0574 | 0.427
GUAACAUGACGAGGAUAUGGUACAUGAGGAUCACCCAUGUAUGUACCACGACGCGUACGUCGAAUCCAGAAGGCGUCGUGAAUG [Mat - Same State NG 2 - JL mod - D21] (Eterna round: R96, puzzle: Same State NG 2) | 0.0265 | 0.0685 | 0.0701 | – | – | –
GUACGUGCAACGUAGGAUAUCCACGACACGACAUGAGGAUCACCCAUGUCAAGGCUUAAAAGUCGGGAGAAGGGCGAACCACGGA [Xereenge] (puzzle: Same State 2) | – | – | – | 0.0159 | 0.0145 | 0.0192
GUAGAAGAACUAGAGGAUAUCCGAGUGGUAACAUGAGGAUCACCCAUGUGAUGAAAGGAACAUGAGGAGAAGGCUAGAAUGAAUG [Mat - Same State 2 - Mod of JL - D83] (puzzle: Same State 2) | – | – | – | 0.0457 | 0.0247 | 0.0792
GUAGAAUAACUAGAGGAUAUCCGAGUGGUAACAUGAGGAUCACCCAUGUGAUGAAAGGAACAUGAGGAGAAGGCUAGAAUGAAUG [Mat - Same State 2 - Mod of JL - D84] (puzzle: Same State 2) | – | – | – | 0.0384 | 0.0234 | 0.0883
GUAGAUGUAGAGGAGGAUAUUCAAUAGAGAACAUGAGGAUCACCCAUGUAAGAGAGAGAUGAUGGGAAGAAGGCUUAGAGAGAUG [Altered State 2-1 - Jieux - Same State 2] (puzzle: Same State 2) | – | – | – | 0.0766 | 0.0722 | 0.0948
GUAGCAUACCGAGGAUAUUCAUAUAAUACAUGAGGAUCACCCAUGUUAUAUAGGCGAAAGCCUUGGGAGAAGGCGGAAUGCUAC [Xeonanis - 20 Mod65] (Eterna round: R96, puzzle: Same State NG 2) | – | 0.0109 | – | – | – | –
GUAGCAUACCGAGGAUAUUCAUAUUAAAUACAUGAGGAUCACCCAUGUAAGGCCAAAAGGCCUUGGGAGAAGGCGGAAUGCUAC [Xeonanis - 20 Mod3] (Eterna round: R96, puzzle: Same State NG 2) | 0.0207 | 0.0325 | 0.0673 | – | – | –
GUAGCAUACCGAGGAUAUUCAUAUUAAAUUACAUGAGGAUCACCCAUGUAGGCCAAAAGGCCUUGGGAGAAGGCGGAAUGCUAC [Xeonanis - 20 Mod1] (Eterna round: R96, puzzle: Same State NG 2) | 0.0188 | 0.0893 | 0.102 | – | – | –
GUAGCAUACCGAGGAUAUUCAUUACAUGAGGAUCACCCAUGUUAAUUAUAGGCCAAAAGGCCUUGGGAGAAGGCGGAAUGCUAC [Xeonanis - 20 Mod13] (Eterna round: R96, puzzle: Same State NG 2) | 0.0122 | 0.00828 | 0.0133 | – | – | –
GUAGGACAUGAGGAUCACCCAUGUAGGAGGGAACGAGGAUAUGUGAUUAGCGAGGAGAGGACAGAAGGCGUGGUAG [JR_SS1_Sub025] (puzzle: Same State 1) | – | – | – | 0.0183 | 0.0187 | 0.0213
GUAUAACAUGAGGAUCACCCAUGUCAUCUAAGUCGAGGAUAUGGGAAUUAAUUAAUUAAACCAGAAGGCGAAAAUG [Mat - Same State 1 - D93] (puzzle: Same State 1) | – | – | – | 0.291 | 0.0482 | 0.3
GUAUCUACAGGUUUCUUUGCUCGUCUGAUACAUGAGGAUCACCCAUGUUAUAGCCCUGUGCUUGCGCAGGGCUGAGG [Sensor for hsa-mir-208a ( MOD of Tearor v.3 )] (puzzle: Sensor for hsa-mir-208a) | – | – | – | 0.0366 | 0.0341 | 0.037
